Laboratory results published in patent publication US20200397913A1, “AXL-SPECIFIC ANTIBODY-DRUG CONJUGATES FOR CANCER TREATMENT” (GENMAB A/S, priority 2015, published 2020).

Assays:
[1] = tested on: SKMEL147 cells; experiment: Melanoma cell line viability assay (CellTiter-Glo); format: cell-based, human; conditions: ADC 1×10^−4 to 10 μg/mL, 5 days
[2] = tested on: A875 cells; experiment: Melanoma cell line viability assay (CellTiter-Glo); format: cell-based, human; conditions: ADC 1×10^−4 to 10 μg/mL, 5 days
[3] = tested on: A375R cells; experiment: Melanoma cell line viability assay (CellTiter-Glo); format: cell-based, human; conditions: ADC 1×10^−4 to 10 μg/mL, 5 days
[4] = tested on: SKMEL28 cells; experiment: Melanoma cell line viability assay (CellTiter-Glo); format: cell-based, human; conditions: ADC 1×10^−4 to 10 μg/mL, 5 days
[5] = tested on: SKMEL28R cells; experiment: Melanoma cell line viability assay (CellTiter-Glo); format: cell-based, human; conditions: ADC 1×10^−4 to 10 μg/mL, 5 days
[6] = tested on: M016 cells; experiment: Patient-derived low passage melanoma culture viability assay; format: cell-based, human; conditions: ADC 8 days
[7] = tested on: M019R cells; experiment: as above; format: cell-based, human; conditions: ADC 8 days
[8] = tested on: M082 cells; experiment: as above; format: cell-based, human; conditions: ADC 8 days
[9] = tested on: PC9-ER cells; experiment: In vitro cytotoxicity assay, erlotinib-resistant NSCLC cell line; format: cell-based, human
[10] = tested on: ES0195 tumors; experiment: Esophageal cancer PDX model ES0195; format: in vivo, BALB/c nude mice; conditions: 20 mg/kg i.p. at day 0, 7 and 14
Protocol: Tumor fragments from donor mice bearing patient-derived esophageal xenografts (ES0195) were used for inoculation into BALB/c nude mice. Each mouse was inoculated subcutaneously at the right flank with one tumor fragment (2-3 mm in diameter) and tumors were allowed to grow until the tumor volume was about 150 mm^3. […] The antibodies and ADCs were dosed intravenously (i.v.) at 4 mg/kg at day of randomization (day 0) and day 7. Paclitaxel was dosed intra-peritoneally (i.p.) at 20 mg/kg at day 0, 7, and 14. Tumor volumes (mm^3) were monitored twice weekly and were calculated from caliper (PLEXX) measurements as: 0.52×(length)×(width)^2.

[11] = tested on: CV1664 tumors; experiment: Cervical cancer PDX model CV1664; format: in vivo, BALB/c nude mice; conditions: 20 mg/kg intraperitoneally at day 0 and 7
Protocol: Inoculation of tumor fragments into BALB/c nude mice and randomization was performed as described in Example 21.

[12] = tested on: LCLC-103H xenograft tumors; experiment: Therapeutic LCLC-103H xenograft model; format: in vivo, SCID mice
Protocol: 5×10^6 LCLC-103H (large cell lung carcinoma) tumor cells (obtained from Leibniz-Institut DSMZ-Deutsche Sammlung von Mikroorganismen and Zellkulturen GmbH (DSMZ)) in 200 μL PBS were injected subcutaneously in the right flank of female SCID mice. Starting 14-21 days after tumor cell inoculation, when the average tumor size was >100-200 mm^3 and distinct tumor growth was observed, a single injection with 1 mg/kg (20 μg/mouse) IgG1-AXL-vcMMAE antibodies (as described in Supplementary Example 1) or control (unconjugated IgG1-b12) was given intraperitoneally (100 μL/mouse). Tumor volume was determined at least two times per week. Tumor volumes (mm^3) were calculated from caliper (PLEXX) measurements as: 0.52×(length)×(width)^2.
(§1) Tumor induction was performed by subcutaneous injection of 5×10^6 A431 or LCLC-103H tumor cells (both obtained from Leibniz-Institut—Deutsche Sammlung von Mikroorganismen and Zellkulturen GmbH (DSMZ)) in 200 μL PBS in the right flank of female SCID mice. Treatment was started 14-21 days after tumor cell inoculation, when the average tumor size was >100-200 mm^3 and distinct tumor growth was observed. Mice received a single injection or a total of 4 biweekly intraperitoneal injections with IgG1-AXL-vcMMAE ADCs or control antibody (unconjugated IgG1-b12), as indicated. Tumor volume was determined at least two times per week. Tumor volumes (mm^3) were calculated from caliper (PLEXX) measurements as: 0.52×(length)×(width)2.

[13] = tested on: A431 tumors; experiment: Therapeutic A431 xenograft model; format: in vivo, SCID mice; conditions: 3 mg/kg intraperitoneally, model produces high levels of Gas6
Protocol: as §1

[14] = tested on: CEXF 773 tumors; experiment: Cervix carcinoma PDX model CEXF 773; format: in vivo, NMRI nu/nu mice; conditions: 4 mg/kg i.v. on day 0 and day 7
Protocol: The anti-tumor activity of IgG1-AXL-183-vcMMAE and IgG1-AXL-726-vcMMAE was evaluated in the patient derived cervix carcinoma xenograft CEXF 773 model in NMRI nu/nu mice (Harlan, Netherlands). Experiments were performed by Oncotest (Freiburg, Germany).
Tumor fragments were obtained from xenografts in serial passage in nude mice. After removal from donor mice, tumors were cut into fragments (4-5 mm diameter) and placed in PBS (with 10% penicillin/streptomycin) until subcutaneous implantation. Mice under isofluorane anesthesia received unilateral, subcutaneous tumor implants in the flank. Tumors were allowed to grow until the tumor volume was 50-250 mm^3.
The treatment groups were: IgG1-b12, IgG1-b12-vcMMAE, IgG1-AXL-183-vcMMAE and IgG1-AXL-726-vcMMAE. The antibodies and ADCs were dosed intravenously (i.v.) at 4 mg/kg on the day of randomization (day 0) and on day 7. Tumor volumes (mm^3) were monitored twice weekly and were calculated from caliper (PLEXX) measurements as: 0.52×(length)×(width)^2.

[15] = tested on: MDA-MB-231 tumors; experiment: Orthotopic MDA-MB-231-luc D3H2LN breast cancer xenograft model; format: in vivo, SCID mice; conditions: 4 biweekly doses of 3 mg/kg
Protocol: The anti-tumor activity of IgG1-AXL-183-vcMMAE and IgG1-AXL-726-vcMMAE was evaluated in an orthotopic MDA-MB-231 D3H2LN xenograft model.
MDA-MB-231-luc D3H2LN Bioware cells (mammary gland adenocarcinoma; Perkin Elmer, Waltham, Mass.) were implanted in the mammary fat pad of 6-11 week old, female SCID (C.B-17/IcrPrkdc-scid/CRL) mice (Charles-River) under isofluorane anesthesia. Tumors were allowed to grow and mice were randomized when tumors reached a volume of ^˜325 mm^3. […] The treatment groups were: IgG1-b12, IgG1-b12-vcMMAE, IgG1-AXL-183-vcMMAE and IgG1-AXL-726-vcMMAE. The animals received a total of 4 biweekly doses of 3 mg/kg antibody or ADC starting at the day of randomization. Tumor volumes (mm^3) were monitored twice weekly and were calculated from caliper (PLEXX) measurements as: 0.52×(length)×(width)^2.

[16] = tested on: PAXF1657 tumors; experiment: PAXF1657 pancreas cancer PDX model; format: in vivo, NMRI nu/nu mice
Protocol: Human pancreas tumor tissue was subcutaneously implanted in the left flank of 5-7 weeks old female NMRI nu/nu mice. […] At day of randomization (day 0), the 3 ADCs were dosed intravenously (i.v.) at either 4 mg/kg or 2 mg/kg, and the control group received a single dose of IgG1-b12 (4 mg/kg). Tumor volumes (mm^3) were monitored twice weekly and were calculated from caliper (PLEXX) measurements as: 0.52×(length)×(width)^2.

[17] = tested on: LCLC-103H cells; conditions: 5 days
[18] = tested on: A431 cells; conditions: A431 (n = 3), 5 days
[19] = tested on: MDA-MB231 cells; conditions: MDA-MB231 (n = 2), 5 days
[20] = Example 13: 3 mg/kg intraperitoneally

Molecule: CCCS(=O)(=O)Nc1ccc(F)c(C(=O)c2c[nH]c3ncc(Cl)cc23)c1F [PLX4720, N-(3-(5-chloro-1H-pyrrolo[2,3-b]pyridine-3-carbonyl)-2,4-difluorophenyl)propane-1-sulfonamide, reference compound]
- sensitivity of the cell line to the substance [1]: resistant
- sensitivity of the cell line to the substance [2]: sensitive
- sensitivity of the cell line to the substance [3]: resistant
- sensitivity of the cell line to the substance [4]: sensitive
- sensitivity of the cell line to the substance [5]: resistant
- sensitivity of the culture to the substance [6]: resistant
- sensitivity of the culture to the substance [7]: resistant
- sensitivity of the culture to the substance [8]: resistant

Molecule: C#Cc1cccc(Nc2ncnc3cc(OCCOC)c(OCCOC)cc23)c1 [erlotinib, reference compound]
- sensitivity of the cell line (cell viability) [9]: acquired resistance

Molecule: CC(=O)O[C@H]1C(=O)[C@@]2(C)[C@H]([C@H](OC(=O)c3ccccc3)[C@]3(O)C[C@H](OC(=O)[C@H](O)[C@@H](NC(=O)c4ccccc4)c4ccccc4)C(C)=C1C3(C)C)[C@]1(OC(C)=O)CO[C@@H]1C[C@@H]2O [paclitaxel, reference compound]
- anti-tumor activity [10]: tumor growth inhibition
- anti-tumor activity [11]: induced partial tumor regression

B1: IgG1-AXL-183-vcMMAE: IgG1-AXL-183 (FN1-binder) conjugated to vcMMAE (conjugate)
VH: QVQLQQWGAGLLKPSETLSLTCAVYGGSFSGYYWSWIRQPPGKGLEWIGEINQSGSTNYNPSLKSRVTISVDTSKNQFSLKLSSVTAADTSVYYCASGNWDHFFDYWGQGTLVTVSS
VL: DIQMTQSPSSVSASVGDRVTITCRASQGISSWLAWYQHKPGKAPKLLIYATSSLQSGVTSRFSGSGSGTDFTLTISSLQPEDFATYYCQQAKSFPWTFGQGTKVEIK
- anti-tumor activity [12, 20]: induced tumor regression
- anti-tumor activity [13]: induced growth inhibition
- anti-tumor activity [14]: induced tumor regression
- anti-tumor activity [15]: induced tumor regression

B2: IgG1-AXL-148-vcMMAE: IgG1-AXL-148 conjugated at cysteines to vcMMAE (conjugate)
VH: EVQLLESGGGLVQPGGSLRLSCAASGFTFSSYAMTWVRQAPGKGLEWVSAISISGGSTFYADSVKGRFTISRDNSKNTLYLQMNSLRAEDTAVYYCRGYSGYVYDAFDFWGQGTMVTVSS
VL: DIQMTQSPSSLSASVGDRVTITCRASQGISNWLAWYQQKPEKAPKSLIYAASSLQSGVPSRFSGSGSGTDFTLTISSLQPEDFATYYCQQYNSYPLTFGGGTKVEIK
- anti-tumor activity ([12]; Example 9: single injection 1 mg/kg intraperitoneally): induced tumor regression
- anti-tumor activity [12, 20]: induced tumor regression
- anti-tumor activity ([16]; 2 mg/kg i.v. at day 0): significantly reduced the growth
- anti-tumor activity ([16]; 4 mg/kg i.v. at day 0): induced tumor regression
- anti-tumor activity ([16]; dose not stated in the sentence (FIG. 10B, 10C)): dose-dependent antitumor activity
- anti-tumor activity [13]: induced growth inhibition
- Cytotoxicity EC50 [17]: 0.012 µg/mL
- Cytotoxicity EC50 Mean [18]: 0.070 µg/mL
- Cytotoxicity EC50 Mean [19]: 0.012 µg/mL

B3: IgG1-AXL-726-vcMMAE: IgG1-AXL-726 (FN2-binder) conjugated to vcMMAE (conjugate)
VH: QVQLQQWGAGLLKPSETLSLTCAIDGGSFSGYYWSWIRQPPGKGLEWIGEISHSGRTNYNPSLKSRVTISIDTSKNQFSLKLSSVAAADTAVYYCARFITMIRGAIITHFDYWGQGALVTVSS
VL: DIQMTQSPSSLSASVGDRVTITCRASQGISSWLAWYQQKPEKAPKSLIYAASSLQSGVPSRFSGSGSGTDFTLTISSLQPEDFATYYCQQYHSYPYTFGQGTKLEIK
- anti-tumor activity [12, 20]: induced tumor regression
- anti-tumor activity [13]: induced growth inhibition
- anti-tumor activity [14]: induced tumor regression
- anti-tumor activity [15]: induced tumor regression
